{
  "source": "paper PMC7911190",
  "about": "“One Step Histological Detection and Staining of the PTEN Tumor Suppressor Protein by a Single Strand DNA”",
  "binders": {"B1": {"name": "Dual aptazyme PTENz7-70 (structured_DNA)", "DNA": "GTGGGTAGGGCGGGTTGGCGGTCATACCGCGCCTATCGAACTCGCCACTCGCGTGCAGCTCTGTGTAGGT"}, "B2": {"name": "PTENz7-87-biotin (structured_DNA)", "DNA": "CGGAATTCCGAGCGTGGGCGTGGTCATACCGCGCCTATCGAACTCGCCACTCGCGTGCAGCTCTGTGTAGGTACGCCCACGCTCGAG"}},
  "key": {"[1]": {"biological_target": "T1, PTEN (endogenous, human tissue sections) (human, UniProt P60484 1-403)", "T1 sequence (P60484 whole entry)": "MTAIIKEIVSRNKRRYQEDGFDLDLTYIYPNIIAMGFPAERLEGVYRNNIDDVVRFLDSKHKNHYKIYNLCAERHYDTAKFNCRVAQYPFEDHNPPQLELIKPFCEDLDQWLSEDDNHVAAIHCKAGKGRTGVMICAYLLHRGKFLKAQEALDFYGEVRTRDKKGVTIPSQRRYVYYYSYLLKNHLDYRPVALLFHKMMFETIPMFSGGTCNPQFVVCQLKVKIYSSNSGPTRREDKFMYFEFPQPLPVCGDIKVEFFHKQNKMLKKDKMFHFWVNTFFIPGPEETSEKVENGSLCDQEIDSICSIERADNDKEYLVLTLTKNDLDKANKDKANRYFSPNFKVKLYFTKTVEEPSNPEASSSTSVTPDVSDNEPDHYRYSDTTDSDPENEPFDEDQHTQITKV", "assay": "histochemistry (PS2.M peroxidase, DAB); hemin, K+; endometrium and colon; same scoring as MAb 6H2 in 60 samples; Fixed tissue sections; 5 uM aptamer in TKT (25 mM Tris-HCl pH 8, 20 mM KCl, 200 mM NaCl, 0.05% Triton X-100, 0.1% DMSO), 100 uM hemin for DNAzyme constructs, BSA; 3 h at room temperature or overnight at 4 C (25 C overnight also stated)", "conditions": "protein: native; 5' PS2.M G-quadruplex; stem linker removed"}, "[2]": {"biological_target": "T1, PTEN (endogenous, human tissue sections)", "assay": "histochemistry (avidin-biotin peroxidase); normal endometrium; TKT buffer; Fixed tissue sections; 5 uM aptamer in TKT (25 mM Tris-HCl pH 8, 20 mM KCl, 200 mM NaCl, 0.05% Triton X-100, 0.1% DMSO), 100 uM hemin for DNAzyme constructs, BSA; 3 h at room temperature or overnight at 4 C (25 C overnight also stated)", "conditions": "protein: native; label: 5' biotin; stem-loop; 13 nt reverse-complementary primer regions form the stem"}},
  "data": [
    {"binder": "B1", "values": [
      {"measurement": "binding result", "setting": "[1]", "value": "binds"}
    ]},
    {"binder": "B2", "values": [
      {"measurement": "binding result", "setting": "[2]", "value": "binds"}
    ]}
  ]
}
